Assay results reported in article PMC11906611.
Where two headings read alike, the source gives them in different places.

How the values were obtained:
[1] = target: FruR labelled with NT-647 (wild type, for MST) (Faecalibacterium prausnitzii A2-165); assay: MST
[2] = target: FruR labelled with NT-647 (wild type, for MST) (Faecalibacterium prausnitzii A2-165); assay: MST; remark: listed apart in the source

HPr2, unlabeled (wild type, for MST) (natural protein)
Kd [1]: 448 nM | Kd [2]: 1.07 nM
